Laboratory results: paper PMC2063460

Tested on: Tus-LPETGG-His6 (sortase-immobilized on glycine-modified GMA beads) (Escherichia coli)
Test: bead-based fluorescence binding (FACS)
Conditions: 50 mM Tris-HCl, 250 mM KCl, 0.1 mM EDTA, 0.1 mM DTT, pH 9; temperature of binding not stated

## TerB
  Kd: 29 nM
